# Reference: article PMC12657314, “Structural modeling and biochemical characterization of MSMEG_0748, a MoxR ATPase from Mycobacterium smegmatis” (Computational and Structural Biotechnology Journal, 2025)
# Columns and labels:
# [1] = substrate: Nc1ncnc2c1ncn2[C@@H]1O[C@H](COP(=O)(O)OP(=O)(O)OP(=O)(O)O)[C@@H](O)[C@H]1O; experiment: purified protein; assay type: biochemical, Mycolicibacterium smegmatis; conditions: 50 mM Tris-HCl pH 8.0, 150 mM KCl, 2 mM MgCl2, 2 mM DTT, 30 °C, 200 nM protein
# [2] = biological target: the molecule itself; experiment: SEC-MALS; Superdex 200 Increase 10/300 GL, 5 mg/mL protein injected, 20 mM Tris-HCl pH 7.5, 300 mM NaCl, 0.5 mM TCEP, flow 0.5 mL/min; DAWN Heleos II detector
Protein,Km [1] [µM],kcat [1] [S^−1],stoichiometry N [2]
"MSMEG_0748 (Mycolicibacterium smegmatis MC2 155) (protein, full length, N-terminal His-tag cut off by rTEV protease, expressed in E. coli BL21(DE3)) MRMAAEPGAAVTGFGGVDDVVRRFDAHDYLLDEGTATAIYLAVSLGRPLLLEGEPGVGKTTAAKTLAAVLGTPLIRLQCYEGLTASEALYDWNYQRQLLSIRLAEARGGEHLDEAALYTESYLVDRPILQCVRHRGPSSPVLLVDEIDRADDEFEALLLEFLGEAAVTVPELGTFVAERPPVVVLTSNRSRDLHDALRRRCLYHWIEYPQRAQAVAIVRRTVPGATDALIDSAVQFVSAARELDLDKPPGVAETIDWVAALVALRVGDLVDPAALGTLGALAKTPDDSGLMRDALLDLTN",0.6951,0.0251,–
"MSMEG_0748 (MoxR-type AAA+ ATPase from Mycobacterium smegmatis mc2 155), recombinant, tag-cleaved (enzyme, UniProt A0QQG6 1-300, looked up, MSMEG_0748, MoxR-type AAA+ ATPase, Mycobacterium smegmatis mc2 155, UniProt A0QQG6; amplified from genomic DNA into pProEX-HTa; full-length protein of about 32.7 kDa after removal of the His tag by rTEV protease; also called wild-type MSMEG_0748; MoxR ATPase; source: E. coli BL21(DE3), purified (Ni-NTA, TEV cleavage, second Ni-NTA, SEC on Superdex 200); not shown: His-tag, N-terminal, cleaved) MRMAAEPGAAVTGFGGVDDVVRRFDAHDYLLDEGTATAIYLAVSLGRPLLLEGEPGVGKTTAAKTLAAVLGTPLIRLQCYEGLTASEALYDWNYQRQLLSIRLAEARGGEHLDEAALYTESYLVDRPILQCVRHRGPSSPVLLVDEIDRADDEFEALLLEFLGEAAVTVPELGTFVAERPPVVVLTSNRSRDLHDALRRRCLYHWIEYPQRAQAVAIVRRTVPGATDALIDSAVQFVSAARELDLDKPPGVAETIDWVAALVALRVGDLVDPAALGTLGALAKTPDDSGLMRDALLDLTN",–,–,6
"MSMEG_0748 (Mycolicibacterium smegmatis MC2 155; E146Q) (protein, full length, N-terminal His-tag cut off by rTEV protease, expressed in E. coli BL21(DE3)) MRMAAEPGAAVTGFGGVDDVVRRFDAHDYLLDEGTATAIYLAVSLGRPLLLEGEPGVGKTTAAKTLAAVLGTPLIRLQCYEGLTASEALYDWNYQRQLLSIRLAEARGGEHLDEAALYTESYLVDRPILQCVRHRGPSSPVLLVDQIDRADDEFEALLLEFLGEAAVTVPELGTFVAERPPVVVLTSNRSRDLHDALRRRCLYHWIEYPQRAQAVAIVRRTVPGATDALIDSAVQFVSAARELDLDKPPGVAETIDWVAALVALRVGDLVDPAALGTLGALAKTPDDSGLMRDALLDLTN",0.9024,0.0189,–
